Article PMC2914181 (Biochemical and biophysical research communications, 2009)

Target: the molecule itself
Assay: SEC

B1: Campylobacter jejuni β-hydroxyacyl-ACP dehydratase (FabZ) (enzyme, Campylobacter jejuni strain 81-176, UniProt Q9PIM2 1-146, looked up)
chain: MIDVMQIQEILPHRYPFLLVDKITELKVKEVVLGYKNISISDHVFMGHFPGHPIYPGVLILEGMAQTGGVLAFESMEDKVDPKSKVVYFTGIDGAKFRNPVRPGDRLDYEMSVVKNRGNMWIFKGQAFVDGNLVAEAELKAMIVDK
stoichiometry N: 6
